The results in this text go back to PMC10196373, “Conformational analysis and interaction of the Staphylococcus aureus transmembrane peptidase AgrB with its AgrD propeptide substrate” (Frontiers in Chemistry, 2023).

Series [1] concerns the target T1, AgrB1 with C-terminal SmBiT (agrBCS) (Staphylococcus aureus, UniProt P0C1P7 1-189).
T1 construct: AgrB1, transmembrane peptidase of S. aureus agr group 1; agrB1 gene amplified with its upstream P2 promoter; A 16 amino acid flexible linker joins AgrB and SmBiT; also called AgrB-SmBiT; pSK-P2-agrBCS; source: S. aureus SH1000, from the agr P2 promoter, chromosomal (attB2) or on low copy plasmid pSK5630, in live cells; not shown: SmBiT (NanoBiT), C-terminal, kept
T1 sequence: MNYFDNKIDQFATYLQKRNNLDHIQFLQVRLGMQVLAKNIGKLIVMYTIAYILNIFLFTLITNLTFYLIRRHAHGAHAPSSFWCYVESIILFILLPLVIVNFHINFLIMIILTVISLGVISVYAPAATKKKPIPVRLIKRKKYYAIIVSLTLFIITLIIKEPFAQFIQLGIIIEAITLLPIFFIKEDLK
Put plainly: split reporter (BiFC, NanoBiT); live S. aureus SH1000 cells; one tagged fusion on the chromosome (attB2), the other on a low copy plasmid, both from the agr P2 promoter; cells at OD600 1.0, Nano-Glo live cell reagent (furimazine), bioluminescence (RLU). The conditions noted are these: partners not purified.

Series [2] concerns the molecule itself. Put plainly: new band of the complex on Tris-glycine gel, Western blot; purified AgrB with DOPG (1 mg/mL) incubated with T7-AgrD1 (2 uM) 30 min at 37 C in 20 mM Tris-HCl pH 7.5, 5 mM MgSO4; heated to 55 C for 5 min in SDS sample buffer, 14% Tris-glycine gel without SDS; blots probed with an AgrB nanobody or an anti-T7 antibody. On the technique in general: In western blotting, separated proteins are transferred to a membrane and probed.

B1: AgrD1 with C-terminal LgBiT (agrDCL) (peptide)
chain: MNTLFNLFFDFITGILKNIGNIAAYSTCDFIMDEVEVPKELTQLHE
notes: AgrD1 pro-peptide of S. aureus agr group 1; PCR-amplified agrD1 put in place of agrB1 in the split luciferase plasmid; A 16 amino acid flexible linker joins AgrD and LgBiT; also called pAgrDCL; AgrD-LgBit; source: S. aureus SH1000, from the agr P2 promoter on low copy plasmid pSK5630, in live cells; not shown: LgBiT (NanoBiT), C-terminal, kept
On to B1, for which the “luminescent signal relative to the other constructs” value in series [1] is more than 10 times.

B2: T7-AgrD1, AIP pro-peptide AgrD1 with a 14 residue T7 epitope leader tag (peptide)
peptide: B1 chain
notes: AgrD1 pro-peptide of S. aureus agr group 1; also called AgrD-T7; T7-tagged AgrD; source: synthetic peptide (solid phase synthesis), bought: CS Bio
On to B2, for which the binding result in series [2] is given as “binds”.
